From patent US6348573B1, “Compositions and methods for identifying apoptosis signaling pathway inhibitors and activators” (The Regents of the University of Michigan, priority 1998, dated 2002)
Where two headings read alike, the source gives them in different places. Peptide text beside a SMILES is read from it. * marks the point of attachment. Cbz = O=C(OCc1ccccc1)*; CH2F = FC*

Tests used:
293T cells [1] = assay: Apoptosis assay, CIDE transfection; assay type: cell-based, human
Protocol: Apoptosis Assays, fluorescence staining of nuclear DNA and DNA fragmentation assay: 5×10^5 293T cells were co-transfected with 0.2 μg of pcDNA3-β-gal plus each expression plasmid in triplicate by the calcium phosphate method as reported [N. Inohara et al, “CLARP, a death effector domain-containing protein interacts with caspase-8 and regulates apoptosis,” Proc. Natl. Acad. Sci. USA 94:10717-10722 (1997a)].
MCF7 were cotransfected with vector control or CIDE-A and β-galactosidase-expressing reporter construct by Lipofectamine (Gibco BRL) according to the manufacturer's instructions. In some experiments, 20 μM zVAD-fmk (benzyloxycarbonyl-Val-Ala-Asp-(OMe)-fluoromethylketone), zFA-fmk (benzyloxycarbonyl-Phe-Ala-(OMc)-fluoromethylketone) and zDEVD-fmk (benzyloxycarbonyl-Asp-Glu-Val-Asp-(OMe)-fluoromethylketone) were added into medium at 8 hr after transfection. zFA-fmk, zVAD-fmk and zDEVD-fmk were obtained from Enzyme Systems. At 24 hours after transfection, cells were fixed, stained for β-galactosidase as described [N. Inohara et al., “CLARP, a death effector domain-containing protein interacts with caspase-8 and regulates apoptosis,” Proc. Natl. Acad. Sci. USA 94:10717-10722 (1997a)] and assayed for morphological features of apoptosis. At least 300 hundred blue-staining cells were counted. Statistical significance was determined by one-way ANOVA followed by Student-Neuman-Keuls post-doc comparisons.
Nuclear staining with acridine-orange was performed as described [N. Inohara et al., “harakiri, a novel regulator of cell death, encodes a protein that activates apoptosis and interacts selectively with survival-promoting proteins Bcl-2 and Bcl-XL.,” EMBO J. 16:1686-1694 (1997b)]. Genomic DNA was extracted and analyzed for DNA fragmentation as described [X. Liu et al., “Apaf-1, a human protein homologous to C. elegans CED-4, participates in cytochrome c-dependent activation of caspase-3,” Cell 90:405-413 (1997)].

293T cells [2] = assay: Apoptosis assay, RICK co-transfection; assay type: cell-based, human; settings: for caspase-8-induced apoptosis potentiated by RICK: 293T cells, zVAD-fmk 20 μM added at 8 hrs after transfection, p35 by expression plasmid
Protocol: The total amount of transfected plasmid DNA was adjusted with pcDNA3 plasmid to be the same within individual experiments. After transfection, 293T cells were harvested at different times and lysed with 0.2% NP-40 isotonic lysis buffer [N. Inohara et al., Proc. Natl. Acad. Sci. U.S.A. 94:10717-10722 (1997)]. The B lymphocyte-derived BJAB cell line was stably trasnfected by electroporation with pcDNA3 or pcDNA3-Flag-RICK (K38M). After selection with […] (1 μg/ml), bulk cell lines were tested for RICK protein expression with anti-Flag antibody by flow cytometric analysis. For immunoprecipitation, 1 mg of soluble protein was incubated with 10 μg/ml of polyclonal anti-Flag, anti-myc or control antibody overnight at 4° C. and tagged proteins were immunoprecipitated with Protein A-Sepharose 4B (Zymed Laboratories Inc.). Immunoprecipitated proteins or total lysates were subjected to 12% SDS-polyacrylamide electrophoresis and immunoblotted with monoclonal antibodies (mAb) to HA (Boeringer Mannheim) or Flag (Kodak).
Apoptosis Assays: 5×10^5 293T cells were co-transfected with 0.2 μg of pcDNA3-β-gal plus each expression plasmid in triplicate by the calcium phosphate method as reported [N. Inohara et al., Proc. Natl. Acad. Sci. U.S.A. 94:10717-10722 (1997)]. In some experiments, 20 μM of the caspase inhibitor zVAD-fmk (Enzyme Systems Products) or 12.5 μl of medium from […] cells producing Fas ligand (Immunex Corporation, Seattle, Wash.) was added at 8 hrs after transfection. At 18 or 24 hours after transfection, cells were fixed, stained for β-galactosidase as described [N. Inohara et al., Proc. Natl Acad. Sci. U.S.A. 94:10717-10722 (1997)] and assayed for morphological features of apoptosis. At least 300 hundred blue-staining cells were counted. BJAB apoptosis induced by anti-Apol mAb was determined by flow cytometric analysis of nuclei stained with propidium iodide as described [R. Merino et al., J. Immunol. 155:3830-3838 (1995)]. Statistical significance was determined by one-way ANOVA followed by Student-Neuman-Keuls post-doc comparisons.

[3] = target: T1, Flag-tagged RICK (RIP-like interacting CLARP kinase), pcDNA3-Flag-RICK (human, UniProt O43353 11-540, limits assumed); assay: anti-Flag immunoprecipitation from co-transfected 293T cells, anti-HA immunoblot
T1 construct: Entire open reading frame of RICK, expressed in 293T cells; also called CIPERK; Flag-CIPERK; not shown: N-terminal Flag tag

293T cells [4] = assay: β-galactosidase apoptosis assay, ARC co-transfection; assay type: cell-based, human
Protocol: Briefly, 2 μg of pcDNA3 or pcDNA3-ARC-Flag or -HA was co-transfected with 3 μg of pcDNA3 or caspase expression plasmids. Total amount of transfected plasmid DNA was always 5 μg. 293T cells were harvested after 22 hr and lysed with 0.2% NP-40 isotonic lysis buffer [Z. N. Oltvai et al., Cell 74:609-619 (1993)]. For immunoprecipitation, […] of soluble protein was incubated with 10 μg/ml of polyclonal anti-Flag, monoclonal anti-AU1 or polyclonal anti-HA antibody for 2 hr at 4° C. and tagged proteins were immunoprecipitated with Protein A-Sepharose 4B (Zymed Laboratories Inc., San Francisco, Calif.). Immunoprecipitates were subjected to 12% SDS-polyacrylamide electrophoresis and immunoblotted with anti-Flag, anti-AU1 or anti-HA antibodies. β-galactosidase apoptosis assay and Caspase-8 enzymatic assay: 5×10^5 293T cells were transfected with 0.3 μg of pcDNA3-β-gal plus each expression plasmid in triplicate. Cells were fixed 16 hrs after transfection, stained for β-galactosidase and assayed for morphological features of apoptosis [M. Muira et al., Cell 75:653-660 (1993)]. Statistical significance was determined by one-way ANOVA followed by Student-Neuman-Keuls post-doc comparisons. For caspase-8 enzymatic assay, 1.5×10^6 human 293T cells were co-transfected with pcDNA3, pcDNA3-ARC-Flag, pcDNA3-caspase-8 and pcDNA3-caspase-8-mt by a calcium phosphate method. Total amount of transfected plasmid DNA was always 2.5 μg. 293T cells were harvested 18hr after transfection and lysed with 0.2% NP-40 isotonic lysis buffer. Tagged proteins were immunoprecipitated and caspase activity was measured as described [N. Inohara et al., Proc. Natl. Acad. Sci. USA 94:10717-10722 (1997)].

T1 sequence (O43353 other isoform, or with tags, fused parts or gaps limits assumed): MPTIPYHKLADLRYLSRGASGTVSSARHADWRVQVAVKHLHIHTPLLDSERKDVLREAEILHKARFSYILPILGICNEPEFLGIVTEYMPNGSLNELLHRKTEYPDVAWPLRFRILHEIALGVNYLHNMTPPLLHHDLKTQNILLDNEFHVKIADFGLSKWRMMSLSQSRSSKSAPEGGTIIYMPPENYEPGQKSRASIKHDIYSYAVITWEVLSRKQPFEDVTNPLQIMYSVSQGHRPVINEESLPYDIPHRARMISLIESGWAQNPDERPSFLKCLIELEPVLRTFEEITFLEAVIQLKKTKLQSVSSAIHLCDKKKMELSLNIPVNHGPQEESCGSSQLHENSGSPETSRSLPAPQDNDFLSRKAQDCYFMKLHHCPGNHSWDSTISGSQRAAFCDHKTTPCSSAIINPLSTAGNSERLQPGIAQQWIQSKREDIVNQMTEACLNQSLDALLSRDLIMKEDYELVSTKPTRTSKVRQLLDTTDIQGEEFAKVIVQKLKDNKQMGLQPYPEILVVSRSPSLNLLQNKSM

COC(=O)CC[C@H](NC(=O)[C@H](CC(=O)OC)NC(=O)OCc1ccccc1)C(=O)N[C@H](C(=O)N[C@@H](CC(=O)OC)C(=O)CF)C(C)C [zDEVD-fmk, benzyloxycarbonyl-Asp-Glu-Val-Asp-(OMe)-fluoromethylketone, reference compound]
killing activity of CIDE-A in presence of caspase inhibitors (293T cells [1]): unaffected

COC(=O)CC(NC(=O)C(C)NC(=O)C(NC(=O)OCc1ccccc1)C(C)C)C(=O)CF (stereo not drawn) [zVAD-fmk, benzyloxycarbonyl-Val-Ala-Asp-(OMe)-fluoromethylketone, reference compound] (Cbz-Val-Ala-Asp(OMe)-CH2F; configuration not given here)
caspase-8-induced apoptosis potentiated by RICK (293T cells [2]): inhibited | apoptosis induced by caspase-8 (293T cells [1]; 293T cells, control experiment, same concentration (20 μM)): inhibited | killing activity of CIDE-A in presence of caspase inhibitors (293T cells [1]; 293T cells, peptide inhibitors 20 μM added at 8 hr after transfection, CrmA by plasmid): unaffected

B1: caspase-3, epitope-tagged (enzyme, UniProt P42574 1-277, looked up)
chain: MENTENSVDSKSIKNLEPKIIHGSESMDSGISLDNSYKMDYPEMGLCIIINNKNFHKSTGMTSRSGTDVDAANLRETFRNLKYEVRNKNDLTREEIVELMRDVSKEDHSKRSSFVCVLLSHGEEGIIFGTNGPVDLKKITNFFRGDRCRSLTGKPKLFIIQACRGTELDCGIETDSGVDDDMACHKIPVEADFLYAYSTAPGYYSWRNSKDGSWFIQSLCAMLKQYADKLEFMHILTRVNRKVATEFESFSFDATFHAKKQIPCIVSMLTKELYFYH
notes: also called pcDNA3-caspase-3-Flag; not shown: position and
binding result [3]: no binding

B2: baculovirus p35: broad-based caspase inhibitor protein of baculovirus, expressed from plasmid (protein, UniProt P08160 1-299, looked up)
Early 35 kDa protein: MCVIFPVEIDVSQTIIRDCQVDKQTRELVYINKIMNTQLTKPVLMMFNISGPIRSVTRKNNNLRDRIKSKVDEQFDQLERDYSDQMDGFHDSIKYFKDEHYSVSCQNGSVLKSKFAKILKSHDYTDKKSIEAYEKYCLPKLVDERNDYYVAVCVLKPGFENGSNQVLSFEYNPIGNKVIVPFAHEINDTGLYEYDVVAYVDSVQFDGEQFEEFVQSLILPSSFKNSEKVLYYNEASKNKSMIYKALEFTTESSWGKSEKYNWKIFCNGFIYDKKSKVLYVKLHNVTSALNKNVILNTIK
caspase-8-induced apoptosis potentiated by RICK (293T cells [2]): inhibited

B3: truncated form of ARC: truncated form of ARC that expressed the CARD domain (amino acid 1-106) (protein, UniProt O60936 1-106, looked up, fragment)
chain: MGNAQERPSETIDRERKRLVETLQADSGLLLDALLARGVLTGPEYEALDALPDAERRVRRLLLLVQGKGEAACQELLRCAQRTAGAPDPAWDWQHVGPGYRDRSYD
ability to suppress apoptosis induced by caspase-4, compared with full length ARC (293T cells [4]): no significant difference | ability to suppress apoptosis induced by caspase-8, compared with full length ARC (293T cells [4]): no significant difference

B4: CIDE-A (1-107): CIDE-A mutant containing the N-terminal half with homology to DFF45 (protein, UniProt O70302 1-107, looked up, fragment)
chain: METARDYAGALIRPLTFMGLQTKKVLLTPLIHPARPFRVSNHDRSSRRGVMASSLQELISKTLDVLVITTGLVTLVLEEDGTVVDTEEFFQTLRDNTHFMILEKGQK
induction of apoptosis (killing) of 293T cells by expression (293T cells [1]; 293T cells): did not | inhibition of CIDE-A-induced apoptosis by DFF45 (293T cells [1]; 293T cells, co-expression): antagonized

B5: CIDE-A (108-200): CIDE-A mutant containing the C-terminal half (protein, UniProt O70302 108-200, looked up, fragment)
chain: WTPGSKYVPVCKQPKKSGIARVTFDLYRLNPKDFLGCLNVKATMYEMYSVSYDIRCTSFKAVLRNLLRFMSYAAQMTGQFLVYAGTYMLRVLG
induction of apoptosis (killing) of 293T cells by expression (293T cells [1]; 293T cells): capable of inducing apoptosis | killing activity compared with wild-type CIDE-A (293T cells [1]; 293T cells): greater

B6: deletion mutant missing the C-terminal 165 amino acids: RICK deletion mutant missing the C-terminal 165 amino acids that span the CARD domain (protein, UniProt O43353 1-365, looked up, fragment)
chain: MNGEAICSALPTIPYHKLADLRYLSRGASGTVSSARHADWRVQVAVKHLHIHTPLLDSERKDVLREAEILHKARFSYILPILGICNEPEFLGIVTEYMPNGSLNELLHRKTEYPDVAWPLRFRILHEIALGVNYLHNMTPPLLHHDLKTQNILLDNEFHVKIADFGLSKWRMMSLSQSRSSKSAPEGGTIIYMPPENYEPGQKSRASIKHDIYSYAVITWEVLSRKQPFEDVTNPLQIMYSVSQGHRPVINEESLPYDIPHRARMISLIESGWAQNPDERPSFLKCLIELEPVLRTFEEITFLEAVIQLKKTKLQSVSSAIHLCDKKKMELSLNIPVNHGPQEESCGSSQLHENSGSPETSRSLP
apoptosis of 293T cells induced by Fas, Fas plus FasL or caspase-8 (293T cells [2]; co-expression with RICK deletion mutants): did not enhance apoptosis

B7: human caspase-2, epitope-tagged (enzyme, UniProt P42575 18-452, looked up)
chain: MAADRGRRILGVCGMHPHHQETLKKNRVVLAKQLLLSELLEHLLEKDIITLEMRELIQAKVGSFSQNVELLNLLPKRGPQAFDAFCEALRETKQGHLEDMLLTTLSGLQHVLPPLSCDYDLSLPFPVCESCPLYKKLRLSTDTVEHSLDNKDGPVCLQVKPCTPEFYQTHFQLAYRLQSRPRGLALVLSNVHFTGEKELEFRSGGDVDHSTLVTLFKLLGYDVHVLCDQTAQEMQEKLQNFAQLPAHRVTDSCIVALLSHGVEGAIYGVDGKLLQLQEVFQLFDNANCPSLQNKPKMFFIQACRGDETDRGVDQQDGKNHAGSPGCEESDAGKEKLPKMRLPTRSDMICGYACLKGTAAMRNTKRGSWYIEALAQVFSERACDMHVADMLVKVNALIKDREGYAPGTEFHRCKEMSEYCSTLCRHLYLFPGHPPT
notes: also called AU1-tagged caspase-2; not shown: lette
binding result [3]: no binding
